Reference: paper PMC9637719
Like-named read-outs stand apart in the source and are kept apart here. Each block holds one substance with its values, some of them ahead of it.

What was measured:
[1] = biological target: JetAB complex (JetA2B4), full-length JetA and JetB (Pseudomonas aeruginosa PA14); assay: SEC + SEC-MALS
[2] = biological target: JetAB complex (JetA2B4), full-length JetA and JetB (Pseudomonas aeruginosa PA14); assay: SEC + SEC-MALS; remark: listed apart in the source
[3] = biological target: JetC (Wadjet SMC ATPase subunit, P. aeruginosa PA14), tagless wild type (Pseudomonas aeruginosa PA14); assay: SEC + SEC-MALS
[4] = biological target: JetAB complex (JetA2B4), full-length JetA and JetB (Pseudomonas aeruginosa PA14); assay: SEC-MALS
[5] = biological target: JetD (Wadjet nuclease subunit, P. aeruginosa PA14) (Pseudomonas aeruginosa PA14); assay: SEC + SEC-MALS

- stoichiometry N (JetC per JetA2B4) [1]: 4
- stoichiometry N (JetC per JetA2B4) [2]: 2
- stoichiometry N [3]: 2
Substance: JetC (Wadjet SMC ATPase subunit, P. aeruginosa PA14), tagless wild type (natural protein)

Substance: JetC^head (JetC^E1022Q,L783A 1-284-[…]-781-1101) (domain or fragment)
- stoichiometry N (JetC^head per JetA2B4) [4]: 2

- stoichiometry N [5]: 2
Substance: JetD (Wadjet nuclease subunit, P. aeruginosa PA14) (natural protein)
